# Measured values as given in PMC3504387 (Chemmedchem, 2012).
# Where no end group is shown, it is not given here. The star is where a group is joined. Biotin = O=C1N[C@H]2[C@H](CS[C@H]2CCCCC(=O)*)N1; Ahx = NCCCCCC(=O)O
# T1: GST–PPARγ fusion protein (purified ligand binding domain of PPARγ)
# T1 chain: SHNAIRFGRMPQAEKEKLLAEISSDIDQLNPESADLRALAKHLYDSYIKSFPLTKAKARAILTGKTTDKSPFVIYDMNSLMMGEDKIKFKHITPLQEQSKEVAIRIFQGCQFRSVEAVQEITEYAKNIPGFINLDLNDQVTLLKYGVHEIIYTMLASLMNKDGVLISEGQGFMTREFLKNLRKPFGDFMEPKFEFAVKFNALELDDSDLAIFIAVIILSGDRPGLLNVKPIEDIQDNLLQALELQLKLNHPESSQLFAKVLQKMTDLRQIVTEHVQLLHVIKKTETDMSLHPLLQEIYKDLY
# T2: GST–PPARα fusion protein (purified ligand binding domain of PPARα)
# T2 sequence (Q07869 whole entry, species assumed, looked up): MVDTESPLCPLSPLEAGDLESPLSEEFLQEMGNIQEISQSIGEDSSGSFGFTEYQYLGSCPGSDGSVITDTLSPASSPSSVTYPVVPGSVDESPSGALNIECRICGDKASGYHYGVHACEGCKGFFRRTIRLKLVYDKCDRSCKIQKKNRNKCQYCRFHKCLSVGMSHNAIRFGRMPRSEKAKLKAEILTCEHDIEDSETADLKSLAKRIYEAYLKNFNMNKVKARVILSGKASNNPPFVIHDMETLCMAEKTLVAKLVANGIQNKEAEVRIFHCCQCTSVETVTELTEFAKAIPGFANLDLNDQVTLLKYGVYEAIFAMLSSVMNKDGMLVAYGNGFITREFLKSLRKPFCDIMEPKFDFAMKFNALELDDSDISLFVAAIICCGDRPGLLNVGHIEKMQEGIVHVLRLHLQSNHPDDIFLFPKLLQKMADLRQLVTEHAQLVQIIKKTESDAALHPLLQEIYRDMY
# Tests used:
# [1] = target: T1, GST–PPARγ fusion protein (purified …); assay: FRET or BRET; homogeneous TR-FRET as a1, 12-concentration dose–response of tesaglitazar; the EC50 is of the compound; delta ratio in % of the reference compound at 10 μM (RO4899100 for PPARα, edaglitazone for PPARγ); details: both partners purified
# [2] = target: T2, GST–PPARα fusion protein (purified ligand binding domain of PPARα); assay: FRET or BRET; homogeneous TR-FRET as a1, 12-concentration dose–response of aleglitazar; the EC50 is of the compound; delta ratio in % of the reference compound at 10 μM (RO4899100 for PPARα, edaglitazone for PPARγ)
# [3] = target: T2, GST–PPARα fusion protein (purified ligand binding domain of PPARα); assay: FRET or BRET; homogeneous TR-FRET as a1, 12-concentration dose–response of muraglitazar; the EC50 is of the compound; delta ratio in % of the reference compound at 10 μM (RO4899100 for PPARα, edaglitazone for PPARγ)
# [4] = target: T2, GST–PPARα fusion protein (purified ligand binding domain of PPARα); assay: FRET or BRET; homogeneous TR-FRET as a1, 12-concentration dose–response of fenofibric acid; the EC50 is of the compound; delta ratio in % of the reference compound RO4899100 at 10 μM
# [5] = target: T1, GST–PPARγ fusion protein (purified …); assay: FRET or BRET; homogeneous TR-FRET as a1, 12-concentration dose–response of aleglitazar; the EC50 is of the compound; delta ratio in % of the reference compound at 10 μM (RO4899100 for PPARα, edaglitazone for PPARγ); details: both partners purified
# [6] = target: T1, GST–PPARγ fusion protein (purified …); assay: FRET or BRET; homogeneous TR-FRET as a1, 12-concentration dose–response of muraglitazar; the EC50 is of the compound; delta ratio in % of the reference compound at 10 μM (RO4899100 for PPARα, edaglitazone for PPARγ); details: both partners purified
# [7] = target: T1, GST–PPARγ fusion protein (purified …); assay: FRET or BRET; homogeneous TR-FRET as a1, 12-concentration dose–response of farglitazar; the EC50 is of the compound; delta ratio in % of the reference compound edaglitazone at 10 μM; details: both partners purified
# [8] = target: T2, GST–PPARα fusion protein (purified ligand binding domain of PPARα); assay: FRET or BRET; homogeneous TR-FRET as a1, 12-concentration dose–response of tesaglitazar; the EC50 is of the compound; delta ratio in % of the reference compound at 10 μM (RO4899100 for PPARα, edaglitazone for PPARγ)
# [9] = target: T2, GST–PPARα fusion protein (purified ligand binding domain of PPARα); assay: FRET or BRET; homogeneous TR-FRET as a1, 12-concentration dose–response of RO4899100; the EC50 is of the compound; delta ratio in % of the reference compound at 10 μM (RO4899100 for PPARα, edaglitazone for PPARγ)
# [10] = target: T1, GST–PPARγ fusion protein (purified …); assay: FRET or BRET; homogeneous TR-FRET as a1, 12-concentration dose–response of rosiglitazone; the EC50 is of the compound; delta ratio in % of the reference compound at 10 μM (RO4899100 for PPARα, edaglitazone for PPARγ); details: both partners purified
# [11] = target: T2, GST–PPARα fusion protein (purified ligand binding domain of PPARα); assay: FRET or BRET; homogeneous TR-FRET as a1, 12-concentration dose–response of edaglitazone; the EC50 is of the compound; delta ratio in % of the reference compound at 10 μM (RO4899100 for PPARα, edaglitazone for PPARγ)
# [12] = target: T1, GST–PPARγ fusion protein (purified …); assay: as above; details: both partners purified
# [13] = target: T1, GST–PPARγ fusion protein (purified …); assay: FRET or BRET; homogeneous TR-FRET as a1, 12-concentration dose–response of pioglitazone; the EC50 is of the compound; delta ratio in % of the reference compound at 10 μM (RO4899100 for PPARα, edaglitazone for PPARγ); details: both partners purified
EC50 of tesaglitazar for recruitment [1] [nM],EC50 of aleglitazar for recruitment [2] [nM],delta ratio with aleglitazar [2] [%],EC50 of muraglitazar for recruitment [3] [nM],delta ratio with muraglitazar [3] [%],EC50 of fenofibric acid for recruitment [4] [nM],delta ratio with fenofibric acid [4] [%],EC50 of aleglitazar for recruitment [5] [nM],EC50 of muraglitazar for recruitment [6] [nM],EC50 of farglitazar for recruitment [7] [nM],EC50 of tesaglitazar for recruitment [8] [nM],delta ratio with tesaglitazar [8] [%],EC50 of RO4899100 for recruitment [9] [nM],EC50 of rosiglitazone for recruitment [10] [nM],EC50 of edaglitazone for recruitment [11] [nM],delta ratio with edaglitazone [11] [%],EC50 of edaglitazone for recruitment [12] [nM],delta ratio with RO4899100 [9] [%],EC50 of pioglitazone for recruitment [13] [nM],Binder,further results
274,2.1,53,96.5,31,2160,34,43.2,94.3,16.1,326,70,8.6,951,945,26,86.5,–,–,"{Biotin-Ahx}-SRLHDSKGQTKLLQLLTTKSD (transcriptional intermediary factor 2 (TIF2), motif 1, residues 630-650; source: synthetic peptide (Jerini or Biosynthan, Berlin)) [TIF2_M1 cofactor peptide (transcriptional intermediary factor 2, motif 1)]",–
–,2.3,56,88.9,29,1290,25,–,–,–,377,53,12.7,–,3670,32,–,100,–,"{Biotin-Ahx}-SPKKKENALLRYLLDKDDTK [TIF2_M3 cofactor peptide (transcriptional intermediary factor 2, motif 3)]",–
–,1.6,53,34,33,5200,44,–,–,–,182,54,5.9,–,294,21,–,100,–,"{Biotin-Ahx}-STHGTSLKEKHKILHRLLQDS [TIF2_M2 cofactor peptide (transcriptional intermediary factor 2, motif 2)]",–

# More lines, now with the values behind:
Binder,EC50 of tesaglitazar for recruitment [1] [nM],EC50 of aleglitazar for recruitment [2] [nM],delta ratio with aleglitazar [2] [%],EC50 of muraglitazar for recruitment [3] [nM],delta ratio with muraglitazar [3] [%],EC50 of fenofibric acid for recruitment [4] [nM],delta ratio with fenofibric acid [4] [%],EC50 of aleglitazar for recruitment [5] [nM],EC50 of muraglitazar for recruitment [6] [nM],EC50 of farglitazar for recruitment [7] [nM],EC50 of tesaglitazar for recruitment [8] [nM],delta ratio with tesaglitazar [8] [%],EC50 of RO4899100 for recruitment [9] [nM],EC50 of rosiglitazone for recruitment [10] [nM],EC50 of edaglitazone for recruitment [11] [nM],delta ratio with edaglitazone [11] [%],EC50 of edaglitazone for recruitment [12] [nM],delta ratio with RO4899100 [9] [%],EC50 of pioglitazone for recruitment [13] [nM],further results
"{Biotin-Ahx}-PKKENNALLRYLLDRDDPSDV (source: synthetic peptide (Jerini or Biosynthan, Berlin)) [RAC3_M3 cofactor peptide (receptor-associated co-activator 3, motif 3)]",233,4.4,62,330,35,–,–,9.5,39.5,–,941,60,25.9,271,1920,24,33.1,–,1860,–
"{Biotin-Ahx}-AVQEHASTNMGLEAIIRKALMGKYD (silencing mediator of retinoid and thyroid hormone receptors (SMRT), ID2, residues 2331-2355; also called SMRT2; source: synthetic peptide (Jerini or Biosynthan, Berlin))",–,–,-51,–,-28,–,–,–,–,–,–,-26,–,–,–,-20,–,–,–,EC50 of tesaglitazar for displacement [1]: 346 nM; EC50 of aleglitazar for displacement [2]: 14.1 nM; EC50 of muraglitazar for displacement [3]: 563 nM; EC50 of aleglitazar for displacement [5]: 14.4 nM; EC50 of muraglitazar for displacement [6]: 60.3 nM; EC50 of farglitazar for displacement [7]: 11.6 nM; EC50 of tesaglitazar for displacement [8]: 1780 nM; EC50 of pioglitazone for displacement [13]: 3700 nM; EC50 of RO4899100 for displacement [9]: 108 nM; EC50 of rosiglitazone for displacement [10]: 333 nM; EC50 of edaglitazone for displacement [11]: 790 nM; EC50 of edaglitazone for displacement [12]: 41.6 nM
"{Biotin-Ahx}-SNMHGSLLQEKHRILHKLLQNGNSP (source: synthetic peptide (Jerini or Biosynthan, Berlin)) [RAC3_M2 cofactor peptide (receptor-associated co-activator 3, motif 2)]",110,–,–,–,–,–,–,7.4,16.5,6.5,–,–,–,125,–,–,22.7,–,1070,–
